Measurements from the supplement of paper PMC12636428.

Tested on: Saccharomyces cerevisiae
Assay: transcriptional activation domain activity (GFP:mCherry ratio, weighted mean of sorted bins, harmonized to initial dataset scale) (arbitrary fluorescence ratio units); higher = stronger transcriptional activation
Conditions: beta-estradiol 1 µM; induction time 4 h
In short: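 For this assay, yeast diploids with a GFP reporter carried barcoded protein tiles at URA3, each fused to an estradiol-inducible synthetic transcription factor. Induction was a 1:5 dilution into SC with 1 uM beta-estradiol for 4 hours at 30 °C, followed by sorting into 8 bins by GFP:mCherry ratio and barcode sequencing. Tiles under 50 reads were dropped, and activation activity was calculated as the read-weighted mean of bin median fluorescence, averaged across barcodes and linearly mapped onto the initial dataset scale.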

Row | Sequence | transcriptional activation domain activity
1 | TIHHLKDSRSSSWTVAIDNNSNNNKVSDNQPDFVDFQELLDNDTLGNDLLETT | 61400
2 | RVHPTCLKEFGTADFICGQCNSIYRSGRFLRIARCICLMCHLLSLASTVGLIF | 57300
3 | MIELCLWVFSLLVLPRFGLRNFEVRINVALRELLLTITWGRLAIHVSLLRLVV | 49000
4 | AQLTLRAIVSSKEAGVIIGKGGKNVADLRDETGVKAGVSKVVQGVHDRVLTIT | 29600
5 | LLGVLTLLLLYCNVVLITYHVPTWSRPLDIAFIHAPVRLFFILPLSLLFPYSL | 56100
6 | GKPRGYAFVEYEREKDMKAAYKEGDGMKITGRRVVVDVERGRTVKGWKPRRLG | 36700
7 | FFLLRNGFIFEDMARYRFYTCSQLWLWLIFLAVRSEIGLQRVYVFFVFMLFQV | 49800
8 | QAARTSDYSIAQFRFLLKLLLVHGRWNYVRICKYTLGTFWKEMLFYSVQALYQ | 15400
9 | SGDADEDGNGHGTHCSGTIAGKKYGVAKKAHVYAVKVLRSNGSGSMSDVVKGV | 9640
10 | IVLGFLPIKSWQQHCFYIIMSFGSFVSTAFYSRFVELWGLLWPLWYLTILICV | 42600
11 | ENDGEEVEGEEKESSQGAGGLMGRFTKETDDVRLGASQNIGLVLQYLTSFIAC | 17000
12 | RLRLSCYIMMCVVTSYSTWAIVSGYFTCVPVAKFWDPTIKGHCLNFQALWFFN | 61900
13 | KREDIVRVVNGIFCCYILTFSLFFLFFLVYPSLCFLCLFPLCGVLSFFYLYFP | 20900
14 | RYPPKHILISQSLILILLCFHLSFVWNKEFAPFNIESRTLFICFLGYLPILLL | 36900
15 | WAPLNVGLERRLQTFVVLCHTLTIPIFLTLFFFLCAIPLFWPLLIPYLIYILL | 34700
16 | IRQLFGNYVLLYFFPWGFGCGFLPVLFPVQTCRIYHYLLFYFFFLSPFFFSIP | 36700
17 | FIRSQLGSVMPTIALSLMKDVLFRLEQLFLNRECHEWPVALAVLIIVLMTIES | 52800
18 | SDSGSEGDSDSDRGRSRKRKKGKSTGKSKSKSKSKSRRNASGSDDESESGSGS | 35300
19 | LLLALLIADCGHLVSMRGLGVQVYWNIWEWNVFTAASVLLVYFYITLRICFLF | 53300

Row | Sequence | transcriptional activation domain activity
20 | VLLHLNRYMSIFGNLQILILVGLTSCCRTSHIYHMVLLLVQQHTLHRRYVLHA | 69400
21 | PEKCGDLVVIRGGRLHFRSSAVRLHLLQQMGKTLLLLKDAHLQLTLRTLLYAR | 46500
22 | IFAFGYWLEESGKLLRLDLFTRFYAWGRIVLPRVGDAMIFYWENDTFGIRRGF | 69000
23 | MPHYNSFNMDFSKLRNACGIVLLHWRRYRRILWLIAKNFMRLRGLVSLFDSGP | 48600
24 | MAEADQSSHHQPEPRRTHRKSRNGCVTCKQRRVKCDEGRPTCQKCSFGNRPCS | 41900
25 | EPVEAEAQAEAEAETKEPETKSEETAAASTETEKVEDKREATTATEKAQAAAS | < 6570
26 | WIVALAIIVSDYYGVVKGGVAYGLLASSNTSMAVFIFVWHLGGIWMITMLACM | 65100
27 | AIRRSFAHVFCLCCIMEFPTFILGLGSLYPSLRSNVFFALSFFATRIVLHLML | 65700
28 | WEPPLYDSVGNHNHAGTMESHPHTNIHEELKEFLSGDLIEAEDNAKLMFGDDN | 55300
29 | FVLLFSIFQILFSKSPFVLCVWLISLALIATIKTMYSVLITWHLQFLAFPFYS | 54400
30 | LVYPIVYLYMDRFFMFVLCSPPSHVLGCWESVTVRTYVGILFPLLICCLFYVL | 41100
31 | KQYCVRPNSGRIEAGKEVEVQVLLQAMKEDPPPDARCRDKFLVQSVAVTADQE | 37200
32 | GRIMERSGGWLVLVSHFSYFLNWVLVLFLLFFGGYAYVYYLCISSLLFPFTSF | 48800
33 | KGGSSPEEASAQSGGARSKEAKETGSSPTGGEVGKSGGKSNKSESSEEKSKDG | 19900
34 | TELYRFTLAQSEQPGMYPLDLAWLDWDLVSSLWSYSLWSIQLSIYFFCPFAYF | 61400
35 | PAPAAAAASSSTATEKASGEQQPRESKRNPRHRNKRGRDNKDKDGKEGAGGKS | 28100
36 | MGFKLLLLLPYCTPRLIFKKLLLWLRFFFFLHFLFLPRRTLKNLAPCIFFLLY | 40900
37 | MLMVLFSIFSTMPSPVYIIILFPSFLTFFFRYILSTVLGLWTFAFHLIPNSCW | 65200
